A word on the Kd: it is a measure of binding affinity in units of concentration. In general, stoichiometry N refers to the number of molecules, sites or subunits per partner or assembly.

Here are results for 5 molecules from publication PMC6401066, “A dynamically interacting flexible loop assists oligomerisation of the Caenorhabditis elegans centriolar protein SAS-6” (Scientific Reports, 2019).

Changes are numbered by the printed parent chain. Names and notes keep the numbering of the source.

Data set [1] concerns the target SAS-6 coiled coil (CC interface) (Caenorhabditis elegans) (UniProt O62479). The note with it: cited from earlier work.
Data set [2] deals with the molecule itself. The experiment in a line: fluorescence polarisation; 1,5-IAEDANS on C100 of CeSAS-6N; polarisation against protein concentration in PBS; fit of an ideal self-association model; monomer to NN dimer; three independent experiments. (In fluorescence polarisation assays a small probe gives low polarisation when free and higher when bound to something large.)
Data set [3] deals with the molecule itself. The experiment in a line: FP.
Data set [4] concerns the molecule itself. Nature of the data set: SEC; analytical SEC, Superdex 75 10/300 GL, PBS (20 mM sodium phosphate pH 7.0, 150 mM NaCl, 2 mM DTT); different protein concentrations, up to 10 mg/ml; self-association. (SEC sorts molecules by how far they enter the pores of the column.)

In the case of “SAS-6 coiled coil (CC interface) (from UniProt O62479)”, the Kd in data set [1] was 1 µM.

B1: CeSAS-6N S123E variant (domain or fragment, C. elegans, UniProt O62479 1-168, looked up)
chain: MTSKIALFDQTLIASLLQPLSLNQPDFKAYKTKVKLKISEQRNETSGEKELKFEISRSDDFEFLFSETLNNEKYQILARDHDLTVDFDAFPKVIIQHLLCKNIVKNLEEDGEVDARKKAGYHEIADPGKPTEINIILDAEKNFCSFELFSKTPISKGKIFSIKLHAVR
modifications: 1,5-IAEDANS conjugated to C100 (fluorescence polarisation samples)
notes: SAS-6, C. elegans, N-terminal domain, amino acids 1-168, with S123E; source: E. coli BL21 (DE3), purified (His-Trap HP, thrombin cleavage, Sephadex G75 SEC); not shown: His6, N-terminal, cleaved
In the case of B1, in data set [2], the “fold increase of NN affinity against CeSAS-6N WT” value is roughly 2 fold. In data set [3], this molecule came in with a Kd of 48 µM.

B2: C. elegans SAS-6 N-terminal domain, wild type (CeSAS-6N WT, amino acids 1-168) (domain or fragment, UniProt O62479 1-168, looked up)
chain: B1 chain with E123S
modifications: 1,5-IAEDANS conjugated to C100 (fluorescence polarisation samples)
notes: spindle assembly abnormal protein 6 (SAS-6), C. elegans, N-terminal domain, amino acids 1-168; Samples for NMR were isotopically labelled (15N) and carried no fluorophore; also called WT CeSAS-6N; source: E. coli BL21 (DE3), purified (His-Trap HP, thrombin cleavage, Sephadex G75 SEC); not shown: His6, N-terminal, cleaved
In data set [2], B2 showed a Kd of roughly 100 µM.

B3: C. elegans SAS-6 N-terminal domain plus a short stretch of the coiled coil, wild type (CeSAS-6N-CC WT, amino acids 1-215) (domain or fragment, UniProt O62479 1-215, looked up)
chain: MTSKIALFDQTLIASLLQPLSLNQPDFKAYKTKVKLKISEQRNETSGEKELKFEISRSDDFEFLFSETLNNEKYQILARDHDLTVDFDAFPKVIIQHLLCKNIVKNLEEDGEVDARKKAGYHSIADPGKPTEINIILDAEKNFCSFELFSKTPISKGKIFSIKLHAVRGDHLISHLLKICSSQAVKLSTFYKSADELASLRQKCGDLEKQVEKLS
notes: SAS-6, C. elegans, N-terminal domain plus a short stretch of the coiled coil, amino acids 1-215; Forms a dimer through the coiled coil (calculated mass of the dimer 48.8 kDa) that assembles further through the NN interface; also called WT CeSAS-6_(N-CC); source: E. coli BL21 (DE3), purified (His-Trap HP, thrombin cleavage, Sephadex G75 SEC); not shown: His6, N-terminal, cleaved
B3: the binding result in data set [4] is “binds”.

B4: CeSAS-6N-CC Δ103–130 (domain or fragment, C. elegans, UniProt O62479 1-215, looked up)
chain: MTSKIALFDQTLIASLLQPLSLNQPDFKAYKTKVKLKISEQRNETSGEKELKFEISRSDDFEFLFSETLNNEKYQILARDHDLTVDFDAFPKVIIQHLLCKNTEINIILDAEKNFCSFELFSKTPISKGKIFSIKLHAVRGDHLISHLLKICSSQAVKLSTFYKSADELASLRQKCGDLEKQVEKLS
notes: source: E. coli BL21 (DE3), purified (His-Trap HP, thrombin cleavage, Sephadex G75 SEC); not shown: His6, N-terminal, cleaved
In the case of B4, the “stoichiometry N” value in data set [4] came to 2.
